# According to paper PMC3078593, “Multifunctional transcription factor TFII-I is an activator of BRCA1 function” (British Journal of Cancer, 2011):
# B1: GST-tagged TFII-I (wild type) (natural protein, UniProt P78347-2 1-957, looked up)
# chain: MAQVAMSTLPVEDEESSESRMVVTFLMSALESMCKELAKSKAEVACIAVYETDVFVVGTERGRAFVNTRKDFQKDFVKYCVEEEEKAAEMHKMKSTTQANRMSVDAVEIETLRKTVEDYFCFCYGKALGKSTVVPVPYEKMLRDQSAVVVQGLPEGVAFKHPENYDLATLKWILENKAGISFIIKRPFLEPKKHVGGRVMVTDADRSILSPGGSCGPIKVKTEPTEDSGISLEMAAVTVKEESEDPDYYQYNIQGSHHSSEGNEGTEMEVPAEDDDYSPPSKRPKANELPQPPVPEPANAGKRKVREFNFEKWNARITDLRKQVEELFERKYAQAIKAKGPVTIPYPLFQSHVEDLYVEGLPEGIPFRRPSTYGIPRLERILLAKERIRFVIKKHELLNSTREDLQLDKPASGVKEEWYARITKLRKMVDQLFCKKFAEALGSTEAKAVPYQKFEAHPNDLYVEGLPENIPFRSPSWYGIPRLEKIIQVGNRIKFVIKRPELLTHSTTEVTQPRTNTPVKEDWNVRITKLRKQVEEIFNLKFAQALGLTEAVKVPYPVFESNPEFLYVEGLPEGIPFRSPTWFGIPRLERIVRGSNKIKFVVKKPELVISYLPPGMASKINTKALQSPKRPRSPGSNSKVPEIEVTVEGPNNNNPQTSAVRTPTQTNGSNVPFKPRGREFSFEAWNAKITDLKQKVENLFNEKCGEALGLKQAVKVPFALFESFPEDFYVEGLPEGVPFRRPSTFGIPRLEKILRNKAKIKFIIKKPEMFETAIKESTSSKSPPRKINSSPNVNTTASGVEDLNIIQVTIPDDDNERLSKVEKARQLREQVNDLFSRKFGEAIGMGFPVKVPYRKITINPGCVVVDGMPPGVSFKAPSYLEISSMRRILDSAEFIKFTVIRPFPGLVINNQLVDQSESEGPVIQESAEPSQLEVPATEEIKETDGSSQIKQEPDPTW
# Target: GST-BRCT
# Experiment: cell-based or functional assay
binder,measurement,value
B1,"luciferase activity of 17M8-AdMLP-luc driven by GAL4-BRCT (GAL-BRCT) in COS7 cells, with TFII-I expressed",≤ 2 fold
